Substrate in this series: N[C@@H](CC(=O)c1ccccc1NC=O)C(=O)O
Nature of the series: purified protein. As to conditions: 0.1 M sodium phosphate, pH 7.4, 20 μM ZnCl2, 25°C. It is filed as biochemical, Burkholderia cenocepacia.

B1: BcKynB (Burkholderia cenocepacia J2315) (protein)
chain: MDTLWDISPPVSPATPVWPGDTPVAVERVWRMEAGSPVNVARLTLSPHTGAHCDAPLHYDADGAPIGAVPLDTYLGPCRVIHCIGAAPVVRPADVEAALDGVPPRVLLRTYARAAVEQWDSNFCAVAPDTVDLLAAHGVKLIGIDTPSLDPQESKTMDAHRRVRAHRMAILEGIVLDDVPPGDYELIALPLKFATLDASPVRAVLRALPAQAS
Consider B1, for which the Km stood at 0.57 ± 0.02 mM, the maximal velocity (Vmax) is 0.0582 µmol/min, the kcat was 43.9 s⁻¹ and the kcat/Km is 77100 M⁻¹ s⁻¹.

As usually defined, the Km is the concentration of substrate that gives half-maximal velocity. As a reminder, the Vmax is the top rate of the reaction or transport when substrate is in excess. Usually kcat stands for the number of substrate molecules converted per active site and unit of time at saturation. What is called kcat/Km is the second-order rate constant that governs catalysis at low substrate concentration.
